# Laboratory results taken from US20260242721A1, “A SYNTHETIC CELLULAR ADVANCED SIGNAL ADAPTER (SCASA) SYSTEM” (Danmarks Tekniske Universitet, priority 2023, published 2026).
# B1: PFIG.1: pheromone-responsive Saccharomyces cerevisiae promoter, SEQ ID NO: 9, processing module (yEGFP strain DIX25, CD19 strain DIX56) (nucleic acid, listed as Saccharomyces cerevisiae)
# DNA: TTGAATGATCAACCAAACGCCGATATAGTCACTATTGGTGATAAAATTAAAATGCAGCTATTGAGAACCCATCCTAACAACATTAAATTGTCTATTAATGGAATTGGTAAAGATGCCCCAACTTTCCAAGAATCTGCTTTGATTGCCGATAAGTTATTGAGTGTCATGAAGGCCGGCACTTACCCAAAGATTTCCATTTTCTACAATGACCCAGTGTCTTCCCTATCTTTTGAACCATCTGAAAAACCGATCTTTAACGCCAAGACCATTGAACAATCCCCATCATTCGGCAAATTTGAGATCGACACGGACGCAAACGTTCCAAGAGATTTGTTTGAATATACTTTGGCTAACCAAATGTTGACAGCAATGGCTCAAGGTTATGCTGCTGAAATTTCCGCCAGAAGAAACGCTATGGATAACGCTTCCAAGAATGCCGGTGATATGATCAATCGTTACTCTATCTTGTACAACAGAACAAGACAAGCTGTCATTACTAATGAACTGGTTGATATTATTACTGGTGCTTCCTCTTTGGGATGATAAAAAAATCACCCTGCATTGCCTCTTTATTTGACGTTGTTTTTGTAGAACATGAAACGAATTTTGACTTGATGAGACGAAGTATATATCCAAAGAATACCTTAAATAGAAAAGGAAAGATAATAAATACTAAACACTACTATATATTCAGGTAAAATACAAAAATTATAACATTTTTAAAACTTTTTTTTTTTGAAAGTCCTTCTCGCTTTAGGATTTTTTCCCATTAAGATTATGATGGTTTCATGTATGTGTCAGTTAAAAAAAATATGGCTAAGTAGCAATGAAACGAACCAAGAAAATGAAAACAATATATAGTGCTGTTGAAATAACAAAGACATTGGTATATATTTGTAAAATGTCTGTTAAATGTTTTTTATCTCAGGTTCTTGCTTGTCTTTGGTAGAAGAAATTATAGTAAACAAACAAACAAACAAACAAAAAAAAAAAAAAAAAA
# How the values were obtained:
# [1] = biological target: Schizosaccharomyces pombe P-factor pheromone receptor (Mam2) (Schizosaccharomyces pombe) (UniProt Q00619); assay: cell-based or functional assay
# [2] = biological target: Aga2-HA-PAS40-(G4S)3-CD19-myc yeast surface display fusion protein (CD19.1 ECD displayed on SCASA yeast aAPCs) (synthetic construct, CD19 part modified from human); assay: cell-based or functional assay
# [3] = biological target: CD19 on the human CD19+ NALM6 B cell precursor leukemia cell line (human) (UniProt P15391); assay: cell-based or functional assay
# [4] = tested on: pheromone response pathway (PRP)
# Protocol: To investigate the dose-response features of the selected promoters PMFA2, PFUS1, PAGA2, PFIG.1, PMFA1, PYCL076W, PHPF1, PIME4, PCSS1, PTDH3, PPGK1 and P6XLexOLEU2 upon GPCR stimulation the strains were pre-grown in SC (24 hrs.), whereafter, for each replicate, cells were transferred to 200 μL volumes comprising a 10-fold dilution series of α-factor (0-100 μM) (GenScript) dissolved in SC+1% DMSO, and stimulated for 5 hrs. (30° C., 250 r.p.m.). Flow cytometric measurement was done to quantify yEGFP levels (B525/45-A) and PRP-regulated morphological changes, denoted shmooing (SSC-A) using a NovoCyte Quanteon flow cytometer (Agilent). Data represents means of median fluorescence intensity (mMFI) for three biological replicates and standard deviations hereof. Two-way ANOVA with Tukey's multiple comparisons test was conducted for all conditions.
# CD19 = assay: Yeast surface display (YSD) of CD19, antibody staining and flow cytometry; type: cell-based, Saccharomyces cerevisiae
# Protocol: To investigate the different variants of CD19 modules, yeast cells were grown and, in some cases, stimulated to present CD19 differentially, whereafter they were stained with antibodies and assessed by flow cytometry. Flow cytometric measurement was done using a NovoCyte Quanteon flow cytometer (Agilent) to quantify CD19 by staining with mouse anti-CD19 (FMC63) (Absolute Antibody; Ab00613) and goat anti-mouse-AF647 (polyclonal) (Thermo Fisher; A-21236), detected in R667/30-H, as well as rabbit anti-HA (RM305) (Thermo Fisher; MA5-27915) and goat anti-rabbit-AF488 (polyclonal) (Thermo Fisher; A-11008), detected in B525/45-H (see FIG. 7), and to measure PRP-regulated morphological changes (SSC-H). […] Data represents means of median fluorescence intensity (mMFI) for three biological replicates and standard deviations hereof. Two-way ANOVA with multiple comparisons tests was conducted for all conditions. Histograms are representative replicates. No SSC-normalization was used in the evaluation of the effector module, unlike in Example 1, as it is the absolute response of all effects combined that constitute the total output that CAR T cells interpret and react to.
# For conventional YSD using strain EBY100 and pCT-plasmid-based expression (Chao et al. 2006, Isolating and engineering human antibodies using yeast surface display. Nature Protocols, 1(2), 755-768), strains were pre-grown in SC −trp, then transferred to 5 mL SC −trp +2% Gal for induction of YSD or +2% Gluc as a negative control (24 hrs., 30° C., 250 r.p.m.). NALM6 was cultured in RPMI 1640 medium (ATCC modification) (Thermo Fisher) with 10% fetal bovine serum and 1% pen-strep (RPMI+10% FBS) at 37° C. with 5% CO2. For the investigation of PGAL1-titratability of DIX41 with pMAD58 and DIX74, strains were pre-grown in SC −ura and SC, respectively, then transferred to SC −ura and SC, respectively, with varying concentrations of galactose (0.0002%-2% Gal), using raffinose as compensating carbon source, and YSD was induced for 24 hrs. (30° C., 250 r.p.m.). Strains were similarly grown in 2% Gluc as negative controls. For the investigation of the strain library with constitutive and dynamically regulated expression of CD19 (Background strain/No YSD, PPGK1-Empty, PMFA2-CD19, PFUS1-CD19, PFIG.1-CD19, PMFA1-CD19, PHPF1-CD19, PTDH3-CD19, PPGK1-CD19) the strains were pre-grown in SC, whereafter, for each replicate, 50.000 cells were transferred to 300 μL volumes comprising a 10-fold dilution series of α-factor (0-100 μM) (GenScript) dissolved in SC+1% DMSO, and stimulated for 20 hrs. (30° C., 250 r.p.m.).
# Sequence of UniProt P15391 (P15391 20-556): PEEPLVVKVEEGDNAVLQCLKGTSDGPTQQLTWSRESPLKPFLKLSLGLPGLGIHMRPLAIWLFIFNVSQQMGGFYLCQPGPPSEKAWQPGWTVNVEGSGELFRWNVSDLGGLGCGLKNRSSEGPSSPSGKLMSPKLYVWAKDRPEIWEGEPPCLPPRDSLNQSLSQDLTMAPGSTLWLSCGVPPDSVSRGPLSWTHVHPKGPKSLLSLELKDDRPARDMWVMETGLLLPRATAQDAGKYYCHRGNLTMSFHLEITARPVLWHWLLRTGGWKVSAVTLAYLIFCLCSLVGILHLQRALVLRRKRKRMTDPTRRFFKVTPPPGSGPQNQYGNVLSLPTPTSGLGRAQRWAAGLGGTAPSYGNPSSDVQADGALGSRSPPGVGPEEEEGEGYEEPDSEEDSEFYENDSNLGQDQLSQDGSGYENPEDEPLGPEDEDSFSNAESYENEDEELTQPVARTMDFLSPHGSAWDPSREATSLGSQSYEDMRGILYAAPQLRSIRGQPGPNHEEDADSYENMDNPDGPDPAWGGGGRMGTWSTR
# Sequence of UniProt Q00619 (Q00619 other isoform, or with tags, fused parts or gaps): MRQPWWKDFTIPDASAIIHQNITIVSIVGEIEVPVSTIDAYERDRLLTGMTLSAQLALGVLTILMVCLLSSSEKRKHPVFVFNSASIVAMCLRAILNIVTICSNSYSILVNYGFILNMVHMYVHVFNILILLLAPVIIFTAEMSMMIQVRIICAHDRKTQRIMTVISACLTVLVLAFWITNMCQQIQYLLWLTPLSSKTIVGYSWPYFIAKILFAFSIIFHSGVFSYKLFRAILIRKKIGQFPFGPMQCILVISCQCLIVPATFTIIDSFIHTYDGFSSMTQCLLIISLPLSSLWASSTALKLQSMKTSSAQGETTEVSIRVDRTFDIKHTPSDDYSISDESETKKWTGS
molecule,measurement,setting,value
P-factor (GenScript) (peptide),"fold change of CD19 expression (PFUS1 cassette, anti-HA staining), strain DIX60, pH=5, 0-10 µM P-factor",[1],249 fold
anti-CD19 CAR (FMC63-CD8α-4-1BB-CD3ζ) (receptor),"fold specific activation of CAR+ Jurkat NFAT-Luc cells, yeast PFUS1-CD19 at 0.01 µM α-factor",[2],3.2 fold
same,"fold specific activation of CAR+ Jurkat NFAT-Luc cells, yeast PTDH3-CD19 at 0.001 µM α-factor",[2],27.7 fold
same,"increase of CAR+ Jurkat NFAT-Luc activation relative to the uninduced condition, yeast PTDH3-CD19 at 0.1 µM α-factor",[2],10.3 fold
same,"increase of CAR+ Jurkat NFAT-Luc specific activation relative to the unstimulated condition, yeast PMFA2-CD19 at 0.01 µM α-factor",[2],15.3 fold
same,"increase of CAR+ Jurkat NFAT-Luc specific activation relative to the unstimulated condition, yeast PMFA2-CD19 at 0.1 µM α-factor",[2],14.5 fold
same,"increase of CAR+ Jurkat NFAT-Luc specific activation relative to the unstimulated condition, yeast PMFA2-CD19 at 1 µM α-factor",[2],13.6 fold
same,"increase of CAR+ Jurkat NFAT-Luc specific activation relative to the unstimulated state, yeast PFUS1-CD19 at 1 µM α-factor",[2],3.1 fold
same,"maximal fold specific activation of Jurkat NFAT-Luc cells without GPCR stimulation, yeast PMFA2-CD19, 90% CAR+",[2],5.5 fold
same,"maximal fold specific activation of Jurkat NFAT-Luc cells without GPCR stimulation, yeast PPGK1-CD19, 100% CAR+",[2],11.5 fold
same,"maximal fold specific activation of Jurkat NFAT-Luc cells without GPCR stimulation, yeast PTDH3-CD19, 70% CAR+",[2],12.8 fold
same,"maximal specific activation of 100% CAR+ Jurkat NFAT-Luc cells (luciferase), yeast PFUS1-CD19 pre-stimulated with 1 µM α-factor",[2],4.1 fold
same,"maximal specific activation of 100% CAR+ Jurkat NFAT-Luc cells (luciferase), yeast PMFA2-CD19 pre-stimulated with 0.01 µM α-factor",[2],22.3 fold
same,"maximal specific activation of 100% CAR+ Jurkat NFAT-Luc cells (luciferase), yeast PTDH3-CD19 pre-stimulated with 0.1 µM α-factor",[2],61.9 fold
same,maximal specific activation of CAR+ Jurkat NFAT-Luc cells by yeast PTDH3-CD19 relative to NALM6,[2],2.2 fold
same,maximal specific activation by NALM6 relative to any SCASA yeast aAPC without GPCR stimulation,[3],2.2 fold
same,"peaking activation intensity of Jurkat NFAT-Luc cells co-cultured with NALM6, 90% CAR+",[3],28.1 fold
B1,"maximum fold change of yEGFP, unnormalized",[4]; 1 μM α-factor (peak),516.8±83.0 fold
same,"fold change of yEGFP, unnormalized",[4]; 100 μM α-factor,482.6±98.5 fold
same,"maximum fold change of yEGFP, SSC-normalized",[4]; 100 μM α-factor (peak),128.8±7.2 fold
same,"fold change of induction of yEGFP, SSC-normalized","[4]; α-factor 0-100 μM, 5 hrs, excluding PRP-induced expression boost",128.81±7.17 fold
same,CD19 level at unstimulated conditions,CD19; no GPCR stimulation,extremely low levels of CD19 at the limit of detection
same,fold upregulation of CD19 display relative to unstimulated condition,"CD19; α-factor 0-100 μM, 20 hrs, promoter driving CD19 in DIX41 background",629.6±98.6 fold
